In article PMC4824069:

Target: HEY1 (UniProt Q9Y5J3)
Assay: co-IP of Flag-DPF3a and HA-HEY1
Conditions: reference: wild type; sites S348

Sequence of UniProt Q9Y5J3 (Q9Y5J3 whole entry, looked up): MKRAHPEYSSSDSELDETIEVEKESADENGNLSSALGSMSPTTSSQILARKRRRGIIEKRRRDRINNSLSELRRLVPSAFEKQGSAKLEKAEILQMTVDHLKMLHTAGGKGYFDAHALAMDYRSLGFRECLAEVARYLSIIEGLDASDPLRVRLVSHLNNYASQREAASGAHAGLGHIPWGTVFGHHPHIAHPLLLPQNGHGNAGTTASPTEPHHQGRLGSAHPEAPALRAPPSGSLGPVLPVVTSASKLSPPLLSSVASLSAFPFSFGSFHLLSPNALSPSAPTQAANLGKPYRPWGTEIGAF

Substance: DPF3a (BAF45c1) (from UniProt Q92784-2) S348A
- binding against the reference: weaker
